Source: article PMC5711526

Target: human alpha-thrombin (Homo sapiens, UniProt P00734;P00734 328-363;364-622)
Assay: native ESI-MS

B1: TBA (Bock thrombin binding aptamer, 15-mer) (structured_DNA)
DNA: GGTTGGTGTGGTTGG
B1: binds.
